Data on 2 molecules can be found in patent publication US20240052042A1 (Novartis, published 2024).

A word on the EC50 (read off the curve): it is the concentration at which the effect is half-maximal.

For test [1], the target named is T1, hNPR1-ANP complex (human, UniProt P01160 124-151, limits assumed).
T1 construct: hNPR1 antigen in the presence of ANP; also called hNPR1 + 100 nM ANP
T1 sequence: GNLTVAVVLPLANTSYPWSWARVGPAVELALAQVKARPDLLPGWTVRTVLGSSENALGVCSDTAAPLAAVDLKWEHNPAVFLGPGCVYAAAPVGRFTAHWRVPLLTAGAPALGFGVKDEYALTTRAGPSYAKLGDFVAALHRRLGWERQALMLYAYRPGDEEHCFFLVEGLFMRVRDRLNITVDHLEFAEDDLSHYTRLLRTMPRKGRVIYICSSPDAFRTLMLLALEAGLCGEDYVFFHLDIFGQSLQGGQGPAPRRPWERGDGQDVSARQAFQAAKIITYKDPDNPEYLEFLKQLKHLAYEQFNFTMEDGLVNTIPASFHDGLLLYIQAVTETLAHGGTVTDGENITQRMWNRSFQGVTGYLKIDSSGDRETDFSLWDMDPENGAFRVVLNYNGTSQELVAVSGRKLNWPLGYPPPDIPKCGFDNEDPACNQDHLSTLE
T1 sequence (peptide): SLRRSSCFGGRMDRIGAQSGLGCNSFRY
The test is described as follows: ELISA, 1 µM IgG. The arrangement: unit not given here. For orientation: In an ELISA, binding on a coated surface is turned into a signal by an enzyme label.

For test [2], the target named is T2, human NPR3 in the presence of ANP (human, UniProt P17342 27-481; P01160 124-151, limits assumed).
T2 construct: also called hNPR3 + 100 nM ANP
T2 sequence (looked up): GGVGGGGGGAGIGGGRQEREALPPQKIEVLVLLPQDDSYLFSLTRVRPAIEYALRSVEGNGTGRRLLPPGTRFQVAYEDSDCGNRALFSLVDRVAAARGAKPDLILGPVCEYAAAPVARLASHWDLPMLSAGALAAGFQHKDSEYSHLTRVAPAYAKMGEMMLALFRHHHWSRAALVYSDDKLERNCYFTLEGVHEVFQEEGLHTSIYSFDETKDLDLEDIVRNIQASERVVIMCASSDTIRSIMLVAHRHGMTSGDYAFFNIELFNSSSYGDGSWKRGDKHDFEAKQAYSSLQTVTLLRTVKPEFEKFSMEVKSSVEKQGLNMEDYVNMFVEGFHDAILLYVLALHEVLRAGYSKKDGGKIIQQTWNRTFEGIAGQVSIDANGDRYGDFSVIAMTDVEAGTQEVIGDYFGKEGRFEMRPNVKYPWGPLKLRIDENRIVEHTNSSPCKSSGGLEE
T2 sequence (peptide, looked up): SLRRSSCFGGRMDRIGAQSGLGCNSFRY
The test is described as follows: ELISA, 1 µM IgG. Details: unit not given here.

Test [3] has as its target T3, human Natriuretic Peptide Receptor 1 (hNPR1) (human, UniProt P16066 33-473, limits assumed).
T3 construct: pannings used NPR1-hFc; also called NPR1-hFc
T3 sequence: T1 sequence
Description: ELISA, 1 µM IgG. Details: unit not given here.

Another test has as its target T4, rat NPR1 (rNPR1) (rat, UniProt P18910 29-469, limits assumed).
T4 construct: Soluble antigen
T4 sequence: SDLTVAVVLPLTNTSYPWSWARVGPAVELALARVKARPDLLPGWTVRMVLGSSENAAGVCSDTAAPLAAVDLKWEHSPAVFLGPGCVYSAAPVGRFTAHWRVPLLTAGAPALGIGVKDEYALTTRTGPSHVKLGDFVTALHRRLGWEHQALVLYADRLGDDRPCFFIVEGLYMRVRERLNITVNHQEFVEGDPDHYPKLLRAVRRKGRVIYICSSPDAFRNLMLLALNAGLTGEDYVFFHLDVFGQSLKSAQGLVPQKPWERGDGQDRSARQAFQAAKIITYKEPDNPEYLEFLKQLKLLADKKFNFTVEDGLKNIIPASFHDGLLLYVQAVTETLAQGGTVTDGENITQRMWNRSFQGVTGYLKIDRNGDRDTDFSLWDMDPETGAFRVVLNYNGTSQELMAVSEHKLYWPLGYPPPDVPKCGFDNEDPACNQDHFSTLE
Description: ELISA, IgG titrated on coated antigen, fluorescence [Cont.].

In test [4] the target is T5, human NPR3 (counter target) (human, UniProt P17342 27-481, limits assumed).
T5 construct: Pannings used hNPR3-hFc; also called hNPR3; hNPR3-hFc
T5 sequence (looked up): T2 sequence (looked up)
The test is described as above.

The target in the next test is T6, rNPR1-ANP complex (rat).
T6 sequence: T4 sequence
T6 sequence (peptide): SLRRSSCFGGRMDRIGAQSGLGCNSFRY
Description: ELISA, 1 µM IgG.

Test [5] deals with T1, hNPR1-ANP complex. Description: ELISA, IgG titrated on coated antigen with ANP (250 fold molar excess), fluorescence [Cont.].
Test [6] has as its target T3, human Natriuretic Peptide Receptor 1 …. Description: ELISA, IgG titrated on coated antigen, fluorescence [Cont.].

B1: YY07 (IgG format) (antibody, V domains shown)
VH: EVQLVQSGAEVKKPGESLKISCKGSGYSFTSYWISWVRQMPGKGLEWMGIIYPGTSYTRYSPSFQGQVTISADKSISTAYLQWSSLKASDTAMYYCARGSLPGLLGFDHWGQGTLVTVSS
VL: QSVLTQPPSVSGAPGQRVTISCTGSSSNIGAGYDVHWYQQLPGTAPKLLIYGNSNRPNGVPDRFSGSKSGTSASLAITGLQAEDEADYYCQSYDSPTSSSVFGGGTKLTVLG
notes: also called YY07_LALA
B1: the figures for the “ELISA binding at 1 µM IgG” value (with hNPR1-ANP complex [1]; in test [2]; in test [3]) were 24, 5 and 68, respectively. Besides, the binding result (with rat NPR1 (rNPR1); in test [4]) was “no binding (tested: 1000 nM)” each time.

B2: YY06 (IgG format) (antibody, V domains shown)
VH: EVQLLESGGGLVQPGGSLRLSCAASGFTFSSYAISWVRQAPGKGLEWVSAISGSGGSTYYAESVKGRFTISRDNSKNTLYLQMNSLRAEDTAVYYCARPYLGDRRSYGFDHWGQGTLVTVSS
VL: QSALTQPASVSGSPGQSITISCTGTSSDVGSYNLVSWYQQHPGKAPKLMIYEGSKRPSGVSNRFSGSKSGNTASLTISGLQAEDEADYYCSSYGFHIVVVVFGGGTKLTVLG
notes: also called YY06_LALA
Turning to B2, the “ELISA binding at 1 µM IgG” value came out at 102 with hNPR1-ANP complex [1], 6 in test [2], 91 in test [3] and 4 with rNPR1-ANP complex (rat). Also, the concentration giving a half-maximal response (EC50 (read off the curve)) (with hNPR1-ANP complex [5]; in test [6]) was ~7 nM in each case.
